Values quoted from earlier work, collected in patent US9333241B2, “Thyroid-stimulating hormone receptor polypeptide agonist glycoforms to treat metabolic syndrome” (LipoLytics Therapeutics, LLC, priority 2005, dated 2016).

What was measured:
[1] = target: T1, human TSHR (Homo sapiens, UniProt P16473); conditions: human TSHR transfected into CHO cells
T1 construct: expressed in transfected cells; host or cells: CHO cells

[2] = tested on: rodent models of the metabolic syndrome; conditions: recombinant glycoproteins produced in CHO cells

T1 sequence (P16473 21-764): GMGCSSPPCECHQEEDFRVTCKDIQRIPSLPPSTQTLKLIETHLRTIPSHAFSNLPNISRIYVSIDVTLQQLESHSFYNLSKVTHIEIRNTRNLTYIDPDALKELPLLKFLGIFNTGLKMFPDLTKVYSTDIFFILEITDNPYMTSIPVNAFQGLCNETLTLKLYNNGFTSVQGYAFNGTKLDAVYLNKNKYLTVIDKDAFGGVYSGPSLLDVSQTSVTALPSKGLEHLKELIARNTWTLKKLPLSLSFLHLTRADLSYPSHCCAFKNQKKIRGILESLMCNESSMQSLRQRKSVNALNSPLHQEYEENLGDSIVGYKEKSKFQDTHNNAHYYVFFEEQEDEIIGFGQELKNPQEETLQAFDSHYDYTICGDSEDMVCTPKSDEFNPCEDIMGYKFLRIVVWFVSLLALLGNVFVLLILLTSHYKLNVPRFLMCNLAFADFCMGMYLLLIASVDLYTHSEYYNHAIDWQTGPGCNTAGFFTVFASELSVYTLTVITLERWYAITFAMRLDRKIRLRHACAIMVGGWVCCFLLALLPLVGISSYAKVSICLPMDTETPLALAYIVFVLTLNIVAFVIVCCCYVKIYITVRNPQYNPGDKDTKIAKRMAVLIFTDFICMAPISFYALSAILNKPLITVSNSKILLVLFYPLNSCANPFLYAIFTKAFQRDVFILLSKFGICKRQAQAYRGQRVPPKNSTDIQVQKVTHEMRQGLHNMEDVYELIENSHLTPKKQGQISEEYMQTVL

- activation of human TSHR [1]: potently activates
B1: CGH: heterodimeric glycoprotein of GPHA2 and GPHB5 subunits, produced recombinantly in CHO cells (protein, listed as Homo sapiens)
alpha: QEAVIPGCHLHPFNVTVRSDRQGTCQGSHVAQACVGHCESSAFPSRYSVLVASGYRHNITSVSQCCTISGLKKVKVQLQCVGSRREELEIFTARACQCDMCRLSRY
beta: ASSGNLRTFVGCAVREFTFLAKKPGCRGLRITTDACWGRCETWEKPILEPPYIEAHHRVCTYNETKQVTVKLPNCAPGVDPFYTYPVAIRCDCGACSTATTECETI
- effect of treatment in rodents [2]: improved glucose and lipid profiles and in reversed liver steatosis
